Measured values published in patent US20240409599A1 (Genentech, published 2024).

T1: Mouse IL-18BP (isoform D) (mouse, UniProt Q9Z0M9 29-193, biotinylated (site not stated))
T1 sequence: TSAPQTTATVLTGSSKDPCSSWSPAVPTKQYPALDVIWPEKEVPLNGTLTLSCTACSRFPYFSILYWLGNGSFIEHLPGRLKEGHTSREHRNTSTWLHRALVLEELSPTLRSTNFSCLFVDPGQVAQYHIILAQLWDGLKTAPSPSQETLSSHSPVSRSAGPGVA

T2: Mouse IL-18Rα extracellular domain (mouse, UniProt Q61098 20-326, biotinylated (site not stated))
T2 sequence: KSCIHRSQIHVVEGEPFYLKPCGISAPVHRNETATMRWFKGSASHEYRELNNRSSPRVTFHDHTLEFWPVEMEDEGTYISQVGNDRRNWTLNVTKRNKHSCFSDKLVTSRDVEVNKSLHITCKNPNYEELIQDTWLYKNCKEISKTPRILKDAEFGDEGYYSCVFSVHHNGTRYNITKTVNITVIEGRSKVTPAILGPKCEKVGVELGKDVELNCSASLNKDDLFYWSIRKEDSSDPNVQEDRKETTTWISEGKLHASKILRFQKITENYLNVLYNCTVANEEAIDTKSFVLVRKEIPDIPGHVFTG

T3: Human IL-18Rα extracellular domain (human, UniProt Q13478 22-329, biotinylated (site not stated))
T3 construct: also called IL-18 receptor
T3 sequence: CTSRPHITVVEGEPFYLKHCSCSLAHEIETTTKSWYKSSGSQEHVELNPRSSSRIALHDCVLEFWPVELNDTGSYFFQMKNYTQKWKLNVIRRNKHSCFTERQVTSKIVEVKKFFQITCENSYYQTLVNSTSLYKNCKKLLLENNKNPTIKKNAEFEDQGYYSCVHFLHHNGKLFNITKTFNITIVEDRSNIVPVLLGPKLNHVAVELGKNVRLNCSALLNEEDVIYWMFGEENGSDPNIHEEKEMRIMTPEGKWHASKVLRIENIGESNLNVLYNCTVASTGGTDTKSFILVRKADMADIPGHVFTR

T4: Human IL-18BP (isoform A) (human, UniProt O95998 31-194, biotinylated (site not stated))
T4 construct: also called decoy receptor
T4 sequence: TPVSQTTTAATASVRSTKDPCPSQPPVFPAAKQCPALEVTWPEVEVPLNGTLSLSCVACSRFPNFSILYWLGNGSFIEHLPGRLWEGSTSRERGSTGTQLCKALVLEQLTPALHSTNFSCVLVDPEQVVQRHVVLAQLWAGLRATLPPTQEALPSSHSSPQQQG


Columns and labels:
[1] = target: T1, Mouse IL-18BP (isoform D); assay: SPR, Biacore 8K, 37 C, biotinylated target on SA chip, single-cycle kinetics
Protocol: (§1) SPR experiments were performed using a Biacore 8K (Cytiva) at a temperature of 37° C. Biotinylated human or mouse IL-18Rα and IL-18BP were immobilized onto Biacore streptavidin sensor chip (Series S Sensor Chip SA, Cytiva) to yield an Rmax ≤50 RU. Measurements were made with five, three-fold dilutions into HBS-P+ buffer (10 mM HEPES pH 7.4, 150 mM NaCl, 0.005% surfactant P20). Interactions were evaluated using the single-cycle kinetics method and analyzed with the Biacore 8K evaluation software and fit to a 1:1 binding model.
(§2) A subset of variants were selected for analyses of binding kinetics to the L-18 receptor, IL-IM, and the decoy receptor, L-18BP, by surface plasmon resonance (SPR) (Table 8). With two exceptions, all kinetics constants are within an order of magnitude of wild-type IL-18.

[2] = target: T2, Mouse IL-18Rα extracellular domain; assay: as above
Protocol: as §1, §2

[3] = target: T3, Human IL-18Rα extracellular domain; assay: as above
Protocol: as §1, §2

[4] = target: T4, Human IL-18BP (isoform A); assay: as above
Protocol: as §1, §2

[5] = target: T3, Human IL-18Rα extracellular domain; assay: SPR, Biacore 8K, 37 C, biotinylated target on SA chip
Protocol: as §1, §2

Binder	kon [1]	Kd [2]	koff [2]	kon [2]	Kd [1]	koff [1]	Kd [3]	koff [3]	kon [3]	Kd [4]	koff [4]	kon [4]	binding result [5]
Mouse wild-type mature IL-18 (ligand, also called Mouse WT; mouse mature IL-18) NFGRLHCTTAVIRNINDQVLFVDKRQPVFEDMTDIDQSASEPQTRLIIYMYKDSEVRGLAVTLSVKDSKMSTLSCKNKIISFEEMDPPENIDDIQSDLIFFQKRVPGHNKMEFESSLYEGHFLACQKEDDAFKLILKKKDENGDKSVMFTLTNLHQS	650000 M⁻¹ s⁻¹	1.27 nM	0.0097 s⁻¹	7.6e+06 M⁻¹ s⁻¹	–	–	–	–	–	–	–	–	–
Mouse IL-18 A159C/V182C (ligand) NFGRLHSTTAVIRNINDQVLFVDKRQPVFEDMTDIDQSASEPQTRLIIYMYKDSEVRGLAVTLSVKDSKMSTLSSKNKIISFEEMDPPENIDDIQSDLIFFQKRVPGHNKMEFESSLYEGHFLCSQKEDDAFKLILKKKDENGDKSCMFTLTNLHQS	2.23e+06 M⁻¹ s⁻¹	1.11 nM	0.0077 s⁻¹	7e+06 M⁻¹ s⁻¹	0.014 nM	3.2e-05 s⁻¹	–	–	–	–	–	–	–
Mouse IL-18 T44C/L189C (ligand, Made in mammalian cells) NFGRLHSTCAVIRNINDQVLFVDKRQPVFEDMTDIDQSASEPQTRLIIYMYKDSEVRGLAVTLSVKDSKMSTLSSKNKIISFEEMDPPENIDDIQSDLIFFQKRVPGHNKMEFESSLYEGHFLASQKEDDAFKLILKKKDENGDKSVMFTLTNCHQS	2e+06 M⁻¹ s⁻¹	5.2 nM	0.04 s⁻¹	7.6e+06 M⁻¹ s⁻¹	0.005 nM	1.1e-05 s⁻¹	–	–	–	–	–	–	–
Human IL-18 A162C/I185C (ligand, Made in mammalian cells) YFGKLESKLSVIRNLNDQVLFIDQGNRPLFEDMTDSDSRDNAPRTIFIISMYKDSQPRGMAVTISVKSEKISTLSSENKIISFKEMNPPDNIKDTKSDIIFFQRSVPGHDNKMQFESSSYEGYFLCSEKERDLFKLILKKEDELGDRSCMFTVQNED	–	–	–	–	–	–	68.1 nM	0.212 s⁻¹	3.11e+06 M⁻¹ s⁻¹	0.0065 nM	1.89e-05 s⁻¹	2.91e+06 M⁻¹ s⁻¹	–
Human IL-18 Y37C/S91C (ligand, Made in mammalian cells) CFGKLESKLSVIRNLNDQVLFIDQGNRPLFEDMTDSDSRDNAPRTIFIISMYKDCQPRGMAVTISVKSEKISTLSSENKIISFKEMNPPDNIKDTKSDIIFFQRSVPGHDNKMQFESSSYEGYFLASEKERDLFKLILKKEDELGDRSIMFTVQNED	–	–	–	–	–	–	–	–	–	0.07 nM	0.00018 s⁻¹	2.6e+06 M⁻¹ s⁻¹	–
Human IL-18 T99C/P124C (ligand, Made in mammalian cells) YFGKLESKLSVIRNLNDQVLFIDQGNRPLFEDMTDSDSRDNAPRTIFIISMYKDSQPRGMAVCISVKSEKISTLSSENKIISFKEMNCPDNIKDTKSDIIFFQRSVPGHDNKMQFESSSYEGYFLASEKERDLFKLILKKEDELGDRSIMFTVQNED	–	–	–	–	–	–	64.4 nM	0.032 s⁻¹	500000 M⁻¹ s⁻¹	0.008 nM	2.5e-05 s⁻¹	3e+06 M⁻¹ s⁻¹	–
Human IL-18 S43C/S86C (ligand, Made in mammalian cells) YFGKLECKLSVIRNLNDQVLFIDQGNRPLFEDMTDSDSRDNAPRTIFIICMYKDSQPRGMAVTISVKSEKISTLSSENKIISFKEMNPPDNIKDTKSDIIFFQRSVPGHDNKMQFESSSYEGYFLASEKERDLFKLILKKEDELGDRSIMFTVQNED	–	–	–	–	–	–	54.5 nM	0.0241 s⁻¹	440000 M⁻¹ s⁻¹	0.009 nM	3.2e-05 s⁻¹	3.4e+06 M⁻¹ s⁻¹	–
Human IL-18 L174C (ligand, Made in mammalian cells) YFGKLESKLSVIRNLNDQVLFIDQGNRPLFEDMTDSDSRDNAPRTIFIISMYKDSQPRGMAVTISVKSEKISTLSCENKIISFKEMNPPDNIKDTKSDIIFFQRSVPGHDNKMQFESSSYEGYFLASEKERDLFKLICKKEDELGDRSIMFTVQNED	–	–	–	–	–	–	32.8 nM	0.011 s⁻¹	350000 M⁻¹ s⁻¹	0.007 nM	2.1e-05 s⁻¹	2.93e+06 M⁻¹ s⁻¹	–
Human IL-18 S46C/V189C (ligand, Made in mammalian cells) YFGKLESKLCVIRNLNDQVLFIDQGNRPLFEDMTDSDSRDNAPRTIFIISMYKDSQPRGMAVTISVKSEKISTLSSENKIISFKEMNPPDNIKDTKSDIIFFQRSVPGHDNKMQFESSSYEGYFLASEKERDLFKLILKKEDELGDRSIMFTCQNED	–	–	–	–	–	–	147 nM	0.054 s⁻¹	360000 M⁻¹ s⁻¹	0.018 nM	4.3e-05 s⁻¹	2.3e+06 M⁻¹ s⁻¹	–
Human IL-18 F57C/T81C (ligand, Made in mammalian cells) YFGKLESKLSVIRNLNDQVLCIDQGNRPLFEDMTDSDSRDNAPRCIFIISMYKDSQPRGMAVTISVKSEKISTLSSENKIISFKEMNPPDNIKDTKSDIIFFQRSVPGHDNKMQFESSSYEGYFLASEKERDLFKLILKKEDELGDRSIMFTVQNED	–	–	–	–	–	–	–	–	–	0.007 nM	2.2e-05 s⁻¹	3.4e+06 M⁻¹ s⁻¹	–
Human IL-18 I107C/N123C (ligand, Made in mammalian cells) YFGKLESKLSVIRNLNDQVLFIDQGNRPLFEDMTDSDSRDNAPRTIFIISMYKDSQPRGMAVTISVKSEKCSTLSSENKIISFKEMCPPDNIKDTKSDIIFFQRSVPGHDNKMQFESSSYEGYFLASEKERDLFKLILKKEDELGDRSIMFTVQNED	–	–	–	–	–	–	14.7 nM	0.031 s⁻¹	2.1e+06 M⁻¹ s⁻¹	0.007 nM	2.1e-05 s⁻¹	2.9e+06 M⁻¹ s⁻¹	–
Human IL-18 S46C/I85C (ligand, Made in mammalian cells) YFGKLESKLCVIRNLNDQVLFIDQGNRPLFEDMTDSDSRDNAPRTIFICSMYKDSQPRGMAVTISVKSEKISTLSSENKIISFKEMNPPDNIKDTKSDIIFFQRSVPGHDNKMQFESSSYEGYFLASEKERDLFKLILKKEDELGDRSIMFTVQNED	–	–	–	–	–	–	–	–	–	0.035 nM	0.00012 s⁻¹	3.3e+06 M⁻¹ s⁻¹	–
Human IL-18 N50C (ligand, Made in mammalian cells) YFGKLESKLSVIRCLNDQVLFIDQGNRPLFEDMTDSDSRDNAPRTIFIISMYKDSQPRGMAVTISVKSEKISTLSSENKIISFKEMNPPDNIKDTKSDIIFFQRSVPGHDNKMQFESSSYEGYFLACEKERDLFKLILKKEDELGDRSIMFTVQNED	–	–	–	–	–	–	–	–	–	0.0062 nM	2.6e-05 s⁻¹	4.22e+06 M⁻¹ s⁻¹	no binding (tested: up to 81 nM)
Human IL-18 S101C/T109C (ligand, Made in mammalian cells) YFGKLESKLSVIRNLNDQVLFIDQGNRPLFEDMTDSDSRDNAPRTIFIISMYKDSQPRGMAVTICVKSEKISCLSSENKIISFKEMNPPDNIKDTKSDIIFFQRSVPGHDNKMQFESSSYEGYFLASEKERDLFKLILKKEDELGDRSIMFTVQNED	–	–	–	–	–	–	147 nM	0.042 s⁻¹	280000 M⁻¹ s⁻¹	0.011 nM	2.4e-05 s⁻¹	2.3e+06 M⁻¹ s⁻¹	–
Human IL-18 hCS (ligand) YFGKLESKLSVIRNLNDQVLFIDQGNRPLFEDMTDSDSRDNAPRTIFIISMYKDSQPRGMAVTISVKSEKISTLSSENKIISFKEMNPPDNIKDTKSDIIFFQRSVPGHDNKMQFESSSYEGYFLASEKERDLFKLILKKEDELGDRSIMFTVQNED	–	–	–	–	–	–	1.7 nM	5.6e-05 s⁻¹	32000 M⁻¹ s⁻¹	0.035 nM	4.9e-05 s⁻¹	1.4e+06 M⁻¹ s⁻¹	–
Human IL-18 L45C/E192C (ligand, Made in mammalian cells) YFGKLESKCSVIRNLNDQVLFIDQGNRPLFEDMTDSDSRDNAPRTIFIISMYKDSQPRGMAVTISVKSEKISTLSSENKIISFKEMNPPDNIKDTKSDIIFFQRSVPGHDNKMQFESSSYEGYFLASEKERDLFKLILKKEDELGDRSIMFTVQNCD	–	–	–	–	–	–	58.7 nM	0.028 s⁻¹	470000 M⁻¹ s⁻¹	0.015 nM	3.1e-05 s⁻¹	2.1e+06 M⁻¹ s⁻¹	–
